Assay results reported in patent US20250263778A1 (Hoffmann-La Roche, published 2025).
Like-named read-outs stand apart in the source and are kept apart here.

Key:
[1] = biological target: T1, murine LRP8, biotinylated (murine, UniProt Q924X6 29-858, limits assumed, biotinylated); test: ELISA, biotinylated murine LRP8
T1 construct: also called mu-antigen; murine antigen

[2] = biological target: T2, human LRP8 (Low-density lipoprotein receptor-related protein 8), biotinylated (human, UniProt Q14114 33-826, limits assumed, biotinylated); test: ELISA, biotinylated human LRP8
T2 construct: also called hu-antigen; human antigen
Protocol: The antigen, biotinylated human LRP8, was incubated with 5 μL sample containing the anti-LRP8 antibody at a concentration of 250 ng/mL in a total volume of 25 μL in PBS, 0.5% BSA and 0.05% Tween in a 384 w microtiterplate (Maxisorb (with Streptavidin, Nunc). After 1.5 hrs. incubation at 25° C. unbound antibody was removed by washing 6 times with 90 μL PBS (dispense and aspiration). The antigen-antibody complex was detected by an anti-rabbit antibody conjugated to POD (ECL anti-rabbit IgG-POD, Cat. No. NA9340V; POD=peroxidase). 20-30 min after adding 35 μL POD-substrate 3,3′,5,5′-tetramethyl benzidine (TMB; Piercenet, Cat. No. 34021) the optical density was determined at 370 nm. The EC₅₀ value was calculated with a four parameter logistic model using GraphPad Prism 6.0 software.

[3] = biological target: T1, murine LRP8, biotinylated; test: ELISA, biotinylated murine LRP8; remark: listed apart in the source
[4] = biological target: T2, human LRP8 (Low-density lipoprotein …); test: ELISA, biotinylated human LRP8; remark: listed apart in the source

T1 sequence (Q924X6 29-858 limits assumed): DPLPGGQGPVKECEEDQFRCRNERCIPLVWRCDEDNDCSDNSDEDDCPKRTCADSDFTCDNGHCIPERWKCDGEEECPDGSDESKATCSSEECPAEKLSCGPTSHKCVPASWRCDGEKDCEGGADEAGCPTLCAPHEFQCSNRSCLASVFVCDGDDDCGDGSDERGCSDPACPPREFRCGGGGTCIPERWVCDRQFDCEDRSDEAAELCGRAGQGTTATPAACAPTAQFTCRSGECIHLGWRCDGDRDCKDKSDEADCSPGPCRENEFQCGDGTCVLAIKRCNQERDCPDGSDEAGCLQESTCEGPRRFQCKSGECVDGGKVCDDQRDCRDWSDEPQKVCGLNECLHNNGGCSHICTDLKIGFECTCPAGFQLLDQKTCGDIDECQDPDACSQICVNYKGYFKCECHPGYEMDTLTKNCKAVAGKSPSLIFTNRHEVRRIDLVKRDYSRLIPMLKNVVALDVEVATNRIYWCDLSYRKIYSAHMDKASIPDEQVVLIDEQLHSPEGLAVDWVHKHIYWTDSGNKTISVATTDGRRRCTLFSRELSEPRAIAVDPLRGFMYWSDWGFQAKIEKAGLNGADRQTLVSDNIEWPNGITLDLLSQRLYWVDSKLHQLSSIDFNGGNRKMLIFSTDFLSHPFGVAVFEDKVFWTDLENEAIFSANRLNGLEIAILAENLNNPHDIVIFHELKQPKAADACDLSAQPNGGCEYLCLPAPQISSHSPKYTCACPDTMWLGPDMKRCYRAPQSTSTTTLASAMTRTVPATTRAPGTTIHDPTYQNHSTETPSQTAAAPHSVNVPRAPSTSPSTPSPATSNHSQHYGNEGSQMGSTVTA
T2 sequence (Q14114 33-826 limits assumed): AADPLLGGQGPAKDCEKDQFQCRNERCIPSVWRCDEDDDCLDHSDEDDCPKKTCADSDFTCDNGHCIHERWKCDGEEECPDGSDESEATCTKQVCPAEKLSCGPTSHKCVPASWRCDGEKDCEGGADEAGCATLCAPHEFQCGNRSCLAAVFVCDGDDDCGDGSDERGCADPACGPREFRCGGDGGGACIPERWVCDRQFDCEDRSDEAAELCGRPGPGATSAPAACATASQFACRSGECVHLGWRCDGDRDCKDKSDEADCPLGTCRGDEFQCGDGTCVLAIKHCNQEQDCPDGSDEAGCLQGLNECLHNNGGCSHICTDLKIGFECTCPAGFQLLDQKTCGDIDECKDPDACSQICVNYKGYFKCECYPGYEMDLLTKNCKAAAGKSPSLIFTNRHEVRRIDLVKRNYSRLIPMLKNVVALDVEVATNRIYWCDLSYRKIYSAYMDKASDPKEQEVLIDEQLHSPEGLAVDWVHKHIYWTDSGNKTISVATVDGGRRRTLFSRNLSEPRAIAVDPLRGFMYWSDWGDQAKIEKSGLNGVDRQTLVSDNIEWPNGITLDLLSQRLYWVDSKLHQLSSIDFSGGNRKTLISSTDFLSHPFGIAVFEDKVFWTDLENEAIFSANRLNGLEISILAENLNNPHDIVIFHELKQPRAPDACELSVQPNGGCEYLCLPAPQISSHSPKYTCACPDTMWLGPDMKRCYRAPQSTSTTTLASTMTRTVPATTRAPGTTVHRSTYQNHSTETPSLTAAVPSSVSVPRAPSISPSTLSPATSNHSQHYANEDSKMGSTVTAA

EC50 [1] | EC50 [2] | EC50 [3] | EC50 [4] | Binder
< 0.02 µg/mL | < 0.02 µg/mL | < 0.02 µg/mL | < 0.02 µg/mL | BCC.763 (antibody, V domains shown, Rabbit IgG, kappa; also called antibody 763) VH: CQSVEESGGRLVTPGTPLTLTCTASGFSLSSYNMNWVRQAPGKGLEWIGYINKGGSAYYASWAKGRFTISRTSTTVDLKMTSPTTEDTATYFCVRSGGGGNLNLWGQGTLVTVSS VL: AAVLTQTPSPVSAAVGGTVTISCQSSPNILGNYLSWFQQKPGQPPKLLIYYTSTLASGVPSRFKGSGSGTQFTLTISDVQCDDAATYYCLGVYRSDSDNVFGGGTEVVVK
< 0.02 µg/mL | – | – | < 0.02 µg/mL | BCC.763-2 (antibody, V domains shown, recombinant rabbit IgG, kappa; Positions are Wolfguy indices; tie inferred; also called VH variant 2103:7194:16368 1:N:0:1) VH: CQSVEESGGRLVTPGTPLTLTCTASGFSLSSYNMNWVRQAPGKGLAWIGYINKGGSAYYASWAKGRFTISKTSTTVDLKMTSPTTEDTATYFCVRSGGGGNLNLWGQGTLVTVSS VL: AAVLTQTPSPVSAAVGGTVTISCQSSPNILGNYLSWFQQKPGQPPKLLIYYTSTLASGVPSRFKGSGSGTQFTLTISDVQCDDAATYYCLGVYRSDSDNVFGGGTEVVVK
< 0.02 µg/mL | – | – | < 0.05 µg/mL | BCC.763-4 (antibody, V domains shown, recombinant rabbit IgG, kappa; Positions are Wolfguy indices; tie inferred; copies: 2 + 2) VH: CQSVEESGGRLVTPGTPLTLTCTASGFSLSSYNMNWVRQAPGKGLEWIGYINKGGSAYDANWAKGRFTISRTSTTVDLKMTSPTPEDTATYFCVRSGGGGNLNLWGQGTLVTVSS VL: AAVLTQTPSPVSAAVGGTVTISCQSSPNILGNYLSWFQQKPGQPPKLLIYYTSTLASGVPSRFKGSGSGTQFTLTISDVQCDDAATYYCLGVYRSDSDNVFGGGTEVVVK
< 0.02 µg/mL | – | – | < 0.02 µg/mL | BCC.763-1 (antibody, V domains shown, recombinant rabbit IgG, kappa; Positions are Wolfguy indices, not positions on the entry; tie inferred) VH: CQSVEESGGRLVTPGTPLTLTCTASGFSLSSYNMNWVRQAPGKGLEWIGYINKGGSAYYASWAKGRFTISRTSTTVDLKMTSPTPEDTATYFCVRSGGGGNLNLWGQGTLVTVSS VL: AAVLTQTPSPVSAAVGGTVTISCQSSPNILGNYLSWFQQKPGQPPKLLIYYTSTLASGVPSRFKGSGSGTQFTLTISDVQCDDAATYYCLGVYRSDSDNVFGGGTEVVVK
